US20260049113A1

T1: Full length human midkine protein (human) (UniProt P21741)
T1 sequence: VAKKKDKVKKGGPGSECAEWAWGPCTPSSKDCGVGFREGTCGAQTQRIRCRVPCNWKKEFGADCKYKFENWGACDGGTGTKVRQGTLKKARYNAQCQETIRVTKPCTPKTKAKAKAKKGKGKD

B1: Δ34 MDK (truncated human midkine lacking 34 amino acids from the C-terminus) (ligand)
chain: VAKKKDKVKKGGPGSECAEWAWGPCTPSSKDCGVGFREGTCGAQTQRIRCRVPCNWKKEFGADCKYKFENWGACDGGTGTKVRQGTLKK
B2: Δ14 MDK (truncated human midkine lacking 14 amino acids from the C-terminus) (ligand)
chain: VAKKKDKVKKGGPGSECAEWAWGPCTPSSKDCGVGFREGTCGAQTQRIRCRVPCNWKKEFGADCKYKFENWGACDGGTGTKVRQGTLKKARYNAQCQETIRVTKPCTPK
B3: Δ41 MDK (truncated human midkine lacking 41 amino acids from the C-terminus) (ligand)
chain: VAKKKDKVKKGGPGSECAEWAWGPCTPSSKDCGVGFREGTCGAQTQRIRCRVPCNWKKEFGADCKYKFENWGACDGGTGTKV
B4: Δ58 MDK (truncated human midkine lacking 58 amino acids from the C-terminus) (ligand)
chain: VAKKKDKVKKGGPGSECAEWAWGPCTPSSKDCGVGFREGTCGAQTQRIRCRVPCNWKKEFGADCK
B5: Δ25 MDK (truncated human midkine lacking 25 amino acids from the C-terminus) (ligand)
chain: VAKKKDKVKKGGPGSECAEWAWGPCTPSSKDCGVGFREGTCGAQTQRIRCRVPCNWKKEFGADCKYKFENWGACDGGTGTKVRQGTLKKARYNAQCQE

Each binder was assayed against T1, Full length human midkine protein (human) (assay: cell-based or functional assay).
With B1 the Total Area (area under the curve of wound width, Cell Migration Assay) was 768.
In the case of B2, the Total Area (area under the curve of wound width, Cell Migration Assay) is reported as 1710.
With B3 the Total Area (area under the curve of wound width, Cell Migration Assay) was 924.
With B4 the Total Area (area under the curve of wound width, Cell Migration Assay) was 1990.
Work on B5 yielded a Total Area (area under the curve of wound width, Cell Migration Assay) of 1040.
